Assay results from patent US20140348781A1.

Columns and labels:
IL9 receptor (IL9R) = IL9 receptor (IL9R) (UniProt Q01114); assay: cell-based or functional assay
GMCSF receptor (GMCSFR) = GMCSF receptor (GMCSFR) (UniProt Q00941); assay: cell-based or functional assay
UniProt Q00941, sequence (Q00941 30-388, chain 1 of 2): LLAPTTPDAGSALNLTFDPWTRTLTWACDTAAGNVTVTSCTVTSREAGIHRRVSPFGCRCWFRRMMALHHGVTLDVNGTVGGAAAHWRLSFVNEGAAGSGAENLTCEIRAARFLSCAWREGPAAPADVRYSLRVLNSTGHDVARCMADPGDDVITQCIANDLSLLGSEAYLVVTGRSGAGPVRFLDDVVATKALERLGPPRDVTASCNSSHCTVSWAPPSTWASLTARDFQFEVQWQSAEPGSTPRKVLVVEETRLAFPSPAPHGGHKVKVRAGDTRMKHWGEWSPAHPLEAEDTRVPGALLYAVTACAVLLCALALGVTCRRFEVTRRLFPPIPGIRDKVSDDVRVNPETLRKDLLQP
UniProt Q00941, sequence (P26955 23-896, chain 2 of 2, further chain): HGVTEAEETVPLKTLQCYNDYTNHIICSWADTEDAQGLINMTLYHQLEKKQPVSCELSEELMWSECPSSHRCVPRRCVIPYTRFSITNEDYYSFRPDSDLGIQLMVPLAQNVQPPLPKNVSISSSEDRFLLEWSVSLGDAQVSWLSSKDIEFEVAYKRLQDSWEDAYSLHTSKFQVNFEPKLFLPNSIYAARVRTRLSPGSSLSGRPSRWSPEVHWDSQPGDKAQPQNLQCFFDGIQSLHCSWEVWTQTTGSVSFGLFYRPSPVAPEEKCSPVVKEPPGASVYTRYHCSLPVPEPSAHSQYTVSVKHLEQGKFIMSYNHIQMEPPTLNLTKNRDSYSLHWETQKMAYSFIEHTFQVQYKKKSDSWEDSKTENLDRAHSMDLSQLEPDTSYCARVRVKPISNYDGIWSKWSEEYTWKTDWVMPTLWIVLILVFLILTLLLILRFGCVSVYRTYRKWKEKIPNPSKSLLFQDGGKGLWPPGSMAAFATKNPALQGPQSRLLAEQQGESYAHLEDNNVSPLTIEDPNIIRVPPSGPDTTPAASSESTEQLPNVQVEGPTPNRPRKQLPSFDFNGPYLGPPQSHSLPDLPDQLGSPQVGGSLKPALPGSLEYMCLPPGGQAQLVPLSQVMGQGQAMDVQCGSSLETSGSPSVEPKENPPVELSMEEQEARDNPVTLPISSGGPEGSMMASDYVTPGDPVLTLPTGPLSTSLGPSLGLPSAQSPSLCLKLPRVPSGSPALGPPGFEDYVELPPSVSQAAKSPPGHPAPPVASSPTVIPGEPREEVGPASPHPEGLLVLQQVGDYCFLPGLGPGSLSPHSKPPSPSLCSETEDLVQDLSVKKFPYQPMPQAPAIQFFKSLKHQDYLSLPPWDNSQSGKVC

UniProt Q01114, sequence (Q01114 38-468 limits assumed, chain 1 of 2): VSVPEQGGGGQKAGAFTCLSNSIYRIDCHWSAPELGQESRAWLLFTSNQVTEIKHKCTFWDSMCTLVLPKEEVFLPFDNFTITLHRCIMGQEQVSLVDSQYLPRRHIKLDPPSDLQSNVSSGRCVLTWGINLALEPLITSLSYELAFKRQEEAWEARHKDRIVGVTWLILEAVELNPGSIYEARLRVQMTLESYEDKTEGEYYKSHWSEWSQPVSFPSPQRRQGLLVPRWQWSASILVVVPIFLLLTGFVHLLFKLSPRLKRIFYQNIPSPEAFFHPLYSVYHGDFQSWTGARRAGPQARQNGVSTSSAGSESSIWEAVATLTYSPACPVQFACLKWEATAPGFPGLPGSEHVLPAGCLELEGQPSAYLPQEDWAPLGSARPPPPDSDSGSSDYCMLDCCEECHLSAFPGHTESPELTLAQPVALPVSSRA
UniProt Q01114, sequence (P34902 23-369 limits assumed, chain 2 of 2, further chain): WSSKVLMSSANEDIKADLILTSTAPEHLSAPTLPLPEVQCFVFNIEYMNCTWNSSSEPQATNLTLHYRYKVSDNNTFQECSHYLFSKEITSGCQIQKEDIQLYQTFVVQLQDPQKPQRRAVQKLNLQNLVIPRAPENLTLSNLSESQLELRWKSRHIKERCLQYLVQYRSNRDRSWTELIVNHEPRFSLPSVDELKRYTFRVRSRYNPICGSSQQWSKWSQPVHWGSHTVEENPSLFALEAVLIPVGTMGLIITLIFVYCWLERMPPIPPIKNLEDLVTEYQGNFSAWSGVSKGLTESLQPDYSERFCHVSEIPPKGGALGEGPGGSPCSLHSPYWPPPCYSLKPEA

proliferative rate of bone marrow derived mast cells (MTT assay, 5 days) (IL9 receptor (IL9R)): 100%
proliferative rate of bone marrow derived mast cells (MTT assay, 5 days) (GMCSF receptor (GMCSFR)): 100%
Substance: mouse GIFT9 (fusion of mouse GMCSF and mouse IL9) (ligand)
